Reference: US20030049699A1 (published 2003)

B1: TA-C-fibulin2 (C-terminal part of murine fibulin 2, amino acids 863 to 1195, fused with the transcription activating domain of Gal4) (other, not shown: large carriers)
chain: EGSECVDVNECETGVHRCGEGQLCYNLPGSYRCDCKPGFQRDAFGRTCIDVNECWVSPGRLCQHTCENTPGSYRCSCAAGFLLAADGKHCEDVNECETRRCSQECANIYGSYQCYCRQGYQLAEDGHTCTDIDECAQGAGILCTFRCVNVPGSYQCACPEQGYTMMANGRSCKDLDECALGTHNCSEAETCHNIQGSFRCLRFDCPPNYVRVSQTKCERTTCQDITECQTSPARITHYQLNFQTGLLVPAHIFRIGPAPAFAGDTISLTITKGNEEGYFVTRRLNAYTGVVSLQRSVLEPRDFALDVEMKLWRQGSVTTFLAKMYIFFTTFAP
notes: also called product of plasmid TA-C-FIB2
B2: DB-Fos (fusion protein between the DNA-binding domain of the Gal4 protein and a fragment of the human Fos protein, amino acids 132 to 211) (other, S. cerevisiae;human, UniProt P04386 1-147, looked up)
chain: MKLLSSIEQACDICRLKKLKCSKEKPKCAKCLKNNWECRYSPKTKRSPLTRAHLTEVESRLERLEQLFLLIFPREDLDMILKMDSLQDIKALLTGLFVQDNVNKDAVTDRLASVETDMPLTLRQHRISATSSSEESSNKGQRQLTVSLSPEEEEKRRIRRERNKMAAAKCRNRRRELTDTLQAETDQLEDEKSALQTEIANLLKEKEKLEFILAAHRPACKIPDDLG
notes: Control fusion in the yeast two-hybrid test; also called DE-Fos; pPC76 product
B3: TA (transcription activating domain of Gal4 alone, plasmid pPC86) (other, S. cerevisiae, UniProt P04386 768-881, looked up)
chain: ANFNQSGNIADSSLSFTFTNSSNGPNLITTQTNSQALSQPIASSNVHDNFMNNEITASKIDDGNNSKPLSPGWTDQTAYNAFGITTGMFNTTTMDDVYNYLFDDEDTPPNPKKE
notes: Empty-vector control of the two-hybrid tests
B4: TA-C-mbp1 (C-terminal part of murine MBP1 fused with the transcription activating domain of Gal4) (other, not shown: large carriers)
chain: CTCPDGYRKIGPECVDIDECRYRYCQHRCVNLPGSFRCQCEPGFQLGPNNRSCVDVNECDMGAPCEQRCFNSYGTFLCRCNQGYELHRDGFSCSDIDECGYSSYLCQYRCVNEPGRFSCHCPQGYQLLATRLCQDIDECETGAHQCSEAQTCVNFHGGYRCVDTNRCVEPYVQVSDNRCLCPASNPLCREQPSSIVHRYMSITSERSVPADVFQIQATSVYPGAYNAFQIRSGNTQGDFYIRQINNVSAMLVLARPVTGPREYVLDLEMVTMNSLMSYRASSVLRLTVFVGAYTF
notes: Library clone from mouse embryo cDNA library pPC67; also called product of plasmid TA-C-MBP1

Legend:
[1] = target: T1, DB-wt (fragment 73-393 of wild-type human p53 fused with the DNA-binding domain of Gal4) (S. cerevisiae; human, UniProt P04386 1-147; P04637 73-393); assay: yeast two-hybrid, strain YCM17, URA3 and LacZ reporters
T1 construct: Yeast two-hybrid fusion; also called 73-393 wt in pPC97
Method: (§1) After the cotransformation, the various clones obtained were tested for the phenotypes associated with the URA3 and LacZ genes.

[2] = target: B4; assay: as above
Method: as §1

[3] = target: B1; assay: as above
Method: as §1

[4] = target: B2; assay: as above
Method: as §1

[5] = target: T2, DB protein (DNA-binding domain of Gal4 alone, plasmid pPC97) (S. cerevisiae, UniProt P04386 1-147); assay: as above
T2 construct: Empty-vector control of the two-hybrid tests
Method: as §1

[6] = target: T3, DB-C-fibulin2 (C-fibulin2 fused with the DNA-binding domain of Gal4) (S. cerevisiae; murine, UniProt P04386 1-147, limits assumed); assay: yeast two-hybrid, strain PCY2, LacZ reporter
T3 construct: also called product of plasmid DB-C-FIB2

[7] = target: T4, DB-C-mbp1 (C-mbp1 fused with the DNA-binding domain of Gal4) (S. cerevisiae; murine, UniProt P04386 1-147); assay: yeast two-hybrid, strain PCY2, LacZ reporter
T4 construct: also called DB-C-mbpl; product of plasmid DB-C-MBP1

B1
binding result [1]: no binding

B2
binding result [2]: no binding
binding result [3]: no binding

B3
binding result [4]: no binding
binding result [1]: no binding
binding result [5]: no binding
binding result [6]: no binding
binding result [7]: no binding

B4
binding result [1]: no binding
